Results reported in PMC7409020, “Tumor-Targeting Peptides: The Functional Screen of Glioblastoma Homing Peptides to the Target Protein FABP3 (MDGI)” (Cancers, 2020).

Target: A-CooP
Assay: SPR; Biacore T100; A-CooP immobilised on a CM5 chip (FC-4) by amine coupling, scrambled control peptide on the reference flow cell (FC-3); FABP3 as analyte 0.5-32 µM; 25 °C; PBS with 0.05% Tween-20, pH 7.4; steady state affinity fit of reference-subtracted sensorgrams; mean of three experiments

**Q.** For “recombinant N-terminal His6-tagged human FABP3 (natural protein)”, which Kd is on record?
**A.** The Kd was 16.7 µM.
